Results: patent CN117003876A (KAIKA BIO TECH SHANGHAI CO LTD, dated 2023)

B1: CXCR4膜蛋白 on Hela细胞 (receptor, UniProt P61073 1-352, looked up)
chain: MEGISIYTSDNYTEEMGSGDYDSMKEPCFREENANFNKIFLPTIYSIIFLTGIVGNGLVILVMGYQKKLRSMTDKYRLHLSVADLLFVITLPFWAVDAVANWYFGNFLCKAVHVIYTVNLYSSVLILAFISLDRYLAIVHATNSQRPRKLLAEKVVYVGVWIPALLLTIPDFIFANVSEADDRYICDRFYPNDLWVVVFQFQHIMVGLILPGIVILSCYCIIISKLSHSKGHQKRKALKTTVILILAFFACWLPYYIGISIDSFILLEIIKQGCEFENTVHKWISITEALAFFHCCLNPILYAFLGAKFKTSAQHALTSVSRGSSLKILSKGKRGGHSSVSTESESSSFHSS
notes: whole, on cells; also called Hela细胞过表达CXCR4膜蛋白; Hela细胞膜蛋白CXCR4

Tests used:
[1] = molecular target: T1, 生物素标记SDF-1a配体(SKU# RBP48061, Reprokine) (UniProt P48061-2 22-89, biotin-labelled (site not stated)); assay: FACS on Hela cells, 0.1uM biotin-SDF-1a, SA-FITC
T1 construct: Bought biotinylated ligand; also called SDF-1α; CXCL12

CXCR4膜蛋白 on Hela细胞 = molecular target: B1; assay: FACS on Hela cells, recombinant antibody

| Binder | binding result [1] | binding result (CXCR4膜蛋白 on Hela细胞) |
| --- | --- | --- |
| B1 | binds |  |
| 1B5B10 (antibody, mouse IgG2b, kappa, V domains shown, also called 1B5B10重组抗体; 鼠单抗1B5B10) VH: DVQLQESGPGLVKPSQSLSLTCTVTGYSITSDYAWNWIRQFPGNKLEWMGYIDNSGSTNYNPSLRSRISITRDTSKNQFFLQLNSVTTEDTATYYCALNDYHYVMDYWGQGTSVTVSS VL: DIQMTQSPASLSASVGETVTITCRPSENIYSYLAWYQQKQGKSPQLLVYSAKTLAEGVPLRFSGSYSGTHFSLRINSLQPEDFGSYYCQHHYGSPLTFGSGTKLELKR |  | binds |
